Assay results taken from patent US20090155205A1.

What was measured:
[1] = target: recombinant human TNFα (rhTNFα) (human) (UniProt P01375); assay: cell-based or functional assay
[2] = target: recombinant human TNFα (rhTNFα) (human) (UniProt P01375); assay: SPR BIAcore, summary table
[3] = target: recombinant human TNFα (rhTNFα) (human) (UniProt P01375); assay: SPR BIAcore, biotin-rhTNFα immobilized, Ab 3 nM
[4] = target: recombinant human TNFα (rhTNFα) (human) (UniProt P01375); assay: SPR BIAcore, biotin-rhTNFα immobilized, Ab 6 nM
[5] = target: recombinant human TNFα (rhTNFα) (human) (UniProt P01375); assay: SPR BIAcore, biotin-rhTNFα immobilized, Ab 13 nM
[6] = target: recombinant human TNFα (rhTNFα) (human) (UniProt P01375); assay: SPR BIAcore, biotin-rhTNFα immobilized, Ab 25 nM
[7] = target: recombinant human TNFα (rhTNFα) (human) (UniProt P01375); assay: SPR BIAcore, biotin-rhTNFα immobilized, Ab 50 nM
[8] = target: recombinant human TNFα (rhTNFα) (human) (UniProt P01375); assay: SPR BIAcore, biotin-rhTNFα immobilized, Ab 100 nM
[9] = target: recombinant human TNFα (rhTNFα) (human) (UniProt P01375); assay: SPR BIAcore, biotin-rhTNFα immobilized, Ab 200 nM
[10] = target: recombinant human TNFα (rhTNFα) (human) (UniProt P01375); assay: SPR BIAcore, biotin-rhTNFα immobilized, Ab 400 nM
[11] = target: recombinant human TNFα (rhTNFα) (human) (UniProt P01375); assay: SPR BIAcore, biotin-rhTNFα immobilized, average of the series

recombinant human TNFα (rhTNFα) (human), sequence (P01375 77-233 limits assumed): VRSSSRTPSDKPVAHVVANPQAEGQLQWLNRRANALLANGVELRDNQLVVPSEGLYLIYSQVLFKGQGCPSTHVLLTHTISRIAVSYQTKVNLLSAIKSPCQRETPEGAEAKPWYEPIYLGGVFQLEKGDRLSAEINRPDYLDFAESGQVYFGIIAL

Kd [2]: 0.46 nM
Stoichiometry [2]: 1.4
koff [2]: 8.7e-05 s⁻¹
kon [2]: 190000 M⁻¹ s⁻¹
Ab, bound, RUs [3]: 231 RUs
koff [3]: 6.95e-05 s⁻¹
rhTNFα/Ab [3]: 0.26
Ab, bound, RUs [4]: 433 RUs
koff [4]: 7.37e-05 s⁻¹
rhTNFα/Ab [4]: 0.47
Ab, bound, RUs [5]: 708 RUs
koff [5]: 3.66e-05 s⁻¹
rhTNFα/Ab [5]: 0.78
Ab, bound, RUs [6]: 957 RUs
koff [6]: 4.41e-05 s⁻¹
rhTNFα/Ab [6]: 1.09
Ab, bound, RUs [7]: 1110 RUs
koff [7]: 3.67e-05 s⁻¹
rhTNFα/Ab [7]: 1.32
Ab, bound, RUs [8]: 1140 RUs
koff [8]: 3.54e-05 s⁻¹
rhTNFα/Ab [8]: 1.39
Ab, bound, RUs [9]: 1080 RUs
koff [9]: 4.54e-05 s⁻¹
rhTNFα/Ab [9]: 1.38
Ab, bound, RUs [10]: 881 RUs
koff [10]: 5.38e-05 s⁻¹
rhTNFα/Ab [10]: 1.2
koff [11]: 4.94e-05 s⁻¹
Substance: MAK 195 F(ab′)2
IC50, neutralization of TNFα-induced L929 cytotoxicity [1]: 0.062 nM
